# Patent US11278600B2, “Human alpha-galactosidase variants” (Codexis, Inc., priority 2014, dated 2022)
# Experiments:
# Assay type in all cases: biochemical
# [1] = HTP-analysis of yeast culture supernatants, no challenge (MUGal hydrolysis)
# Method in brief: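 GLA variants expressed in yeast INVSc1, secreted into SD-Ura broth over 66-84 h at 30° C; clarified supernatants tested without challenge. Supernatant mixed with McIlvaine buffer pH 4.8 and 2 mM MUGal (citrate/KCl, pH 4.6), 37° C for 30-180 min, carbonate-quenched, fluorescence Ex 355/Em 448 nm.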
# [2] = HTP-analysis of supernatants pretreated with acid (MUGal hydrolysis); conditions: for Relative Activity of GLA Variants After Challenge at pH 4.2: activity of the variant/activity of Rd2BB (SEQ ID NO: 10), yeast culture supernatant
# Method in brief: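 Fluorescence of MUGal hydrolysis (Ex. 355 nm, Em. 448 nm) is read after sodium carbonate quench. The enzyme source is INVSc1 yeast culture supernatant, first exposed to pH 3.3-4.3 McIlvaine buffer at 37° C. for 1-3 h, then reacted at pH 4.8 for 30-180 minutes.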
# [3] = HTP-analysis of supernatants pretreated with base (MUGal hydrolysis); conditions: for Relative Activity of GLA Variants After Challenge at pH 7.6: activity of the variant/activity of Rd2BB (SEQ ID NO: 10), yeast culture supernatant
# Method in brief: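 Supernatants from INVSc1 yeast expressing GLA variants (SD-Ura, 66-84 h, 30° C) were mixed with McIlvaine buffer pH 7.0-8.2 or 200 mM sodium bicarbonate pH 9.1-9.7 and held 1-18 h at 37° C. Residual activity was then measured on MUGal at pH 4.8/4.3, 37° C, 30-180 min, by fluorescence (Ex 355/Em 448 nm).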
# [4] = HTP-analysis of supernatants pretreated with bovine serum (MUGal hydrolysis); conditions: activity of the variant/activity of Rd2BB (SEQ ID NO: 10), yeast culture supernatant
# Protocol: Yeast (INVSc1) cells transformed with vectors expressing GLA and GLA variants using the lithium acetate method were selected on SD-Ura agar plates. After 72 h incubation at 30° C. colonies were placed into the wells of Axygen® 1.1 ml 96-well deep well plates filled with 200 μl/well SD-Ura broth (2 g/L SD-Ura, 6.8 g/L yeast nitrogen base without amino acids [Sigma Aldrich]), 3.06 g/L sodium dihydrogen phosphate, 0.804 g/L disodium hydrogen phosphate, pH 6.0 supplemented with 6% glucose. The cells were allowed to grow for 20-24 hours in a Kuhner shaker (250 rpm, 30° C., and 85% relative humidity). Overnight culture samples (20 μL) were transferred into Corning Costar® 96-well deep plates filled with 380 µL of SD-ura broth supplemented with 2% glucose. The plates were incubated for 66-84 h in a Kuhner shaker (250 rpm, 30° C., and 85% relative humidity). The cells were then pelleted (4000 rpm×20 min), and the supernatants isolated and stored at 4° C. prior to analysis.
# GLA variants were challenged with bovine serum to simulate the conditions the variants encounter following infusion into a patient. First, 20 μL of yeast culture supernatant and 80 μL, of bovine serum were added to the wells of a 96-well round bottom plate. The plates were sealed and incubated at 37° C. for 1 h. For the assay, 50 μL of serum-challenged sample was mixed with 25 μL, of 1 M citrate buffer pH 4.3 and 25 μL, of 4 mM MUGal in McIlvaine buffer pH 4.8. The reactions were mixed briefly and incubated at 37° C. for 180 minutes, prior to quenching with 100 μL, of 1 M sodium carbonate. Hydrolysis was analyzed using a SpectraMax® M2 microplate reader monitoring fluorescence (Ex. 355 nm, Em. 448 nm).
# [5] = activity of the variant/activity of Rd2BB (SEQ ID NO: 10), yeast culture supernatant
Molecule,Relative Activity of GLA Variants After No Challenge (NC) ([1]; activity of the variant/activity of Rd7BB (SEQ ID NO: 44)),"Relative Activity of GLA Variants After Challenge at pH 3.5 ([2]; activity of the variant/activity of Rd7BB (SEQ ID NO: 44), challenge at pH 3.5)","Relative Activity of GLA Variants After Challenge at pH 7.5 ([3]; activity of the variant/activity of Rd7BB (SEQ ID NO: 44), challenge at pH 7.5)","Relative Activity of GLA Variants After No Challenge (NC) [1, 5]",Relative Activity of GLA Variants After Challenge at pH 4.2 [2],Relative Activity of GLA Variants After Challenge at pH 7.6 [3],Relative Activity of GLA Variants After Challenge with Serum [4]
"659 (protein, Synthetic Polypeptide sequence of Variant No. 659 of mature Human GLA) LDNGLARTPTMGWLHWERFMCNLDCQEEPDSCISEKLFMEMAERMVTEGWKDAGYEYLCIDDCLMAPQRDSEGRLQADPQRFPHGIRQLANHVHSKGLKLGIYADVGNKTCAGFPGSFGYYDIDAQTFADWGVDLLKFDGCYCDSLENLADGYKHMSLALNRTGRPIVYSCEWPLYMWPFQKPNYTEIRQYCNHWRNFADIDDSWASIKSILDWTSRNQERIVDVAGPGGWNDPDMLVIGNFGLSWDQQVTQMALWAIMAAPLFMSNDLRAISPQAKALLQDKDVIAINQDPLGKQGYQLRKGDNFEVWERPLSGDAWAVAIINRQEIGGPRSYTIPVASLGKGVACNPACFITQLLPVKRQLGFYNWTSRLKSHINPTGTVLLQLENTMQTSLKDLL",− (<0.5 relative activity to Rd7BB (SEQ ID NO: 44)),− (<0.5 relative activity to Rd7BB (SEQ ID NO: 44)),− (<0.5 relative activity to Rd7BB (SEQ ID NO: 44)),–,–,–,–
"237 (protein, Synthetic Polypeptide sequence of Variant No. 237 of mature Human GLA) LDNGLARTPTMGWLHWERFMCNLDCQEEPDSCISEKLFMEMAELMVSEGWKDAGYEYLCIDDCWMAPQRDSEGRLQADPQRFPHGIRQLANYVHSKGLKLGIYADVGNKTCAGFPGSFGYYDIDAQTFADWGVDLLKFDGCYCDSLENLADGYKHMSLALNRTGRSIVYSCEWPLYMWPFQKPNYTEIRQYCNHWRNFADIDDSWASIKSILDWTSRNQERIVDVAGPGGWNDPDMLVIGNFGLSWNQQVTQMALWAIMAAPLFMSNDLRHISPQAKALLQDKDVIAINQDPLGKQGYQLRKGDNFEVWERPLSGDAWAVAMINRQEIGGPRSYTIPVASLGKGVACNPGCFITQLLPVKRKLGFYDWDSRLRSHINPTGTVLLQLENTMQMSLKDLL",–,–,–,+++ (+++ = >2.5 relative activity over Rd2BB (SEQ ID NO: 10)),+++ (+++ = >2.5 relative activity over Rd2BB (SEQ ID NO: 10)),+++ (+++ = >2.5 relative activity over Rd2BB (SEQ ID NO: 10)),+++ (+++ = >2.5 relative activity over Rd2BB (SEQ ID NO: 10))
"240 (protein, Synthetic Polypeptide sequence of Variant No. 240 of mature Human GLA) LDNGLARTPTMGWLHWERFMCNLDCQEEPDSCISEKLFMEMAELMVSEGWKDAGYEYLCIDDCWMAPQRDSEGRLQADPQRFPHGIRQLANYVHSKGLKLGIYADVGNKTCAGFPGSFGYYDIDAQTFADWGVDLLKFDGCYCDSLENLADGYKHMSLALNRTGRSIVYSCEWPLYMWPFQKPNYTEIRQYCNHWRNFADIDDSWASIKSILDWTSFNQERIVDVAGPGGWNDPDMLVIGNFGLSWNQQVTQMALWAIMAAPLFMSNDIRHISPQAKALLQDKDVIAINQDPLGKQGYQLRQGDNFEVWERPLSGLAWAVAMINRQEIGGPRSYTIAVASLGKGVACNLACFITQLLPVKRKLGFYEWTSRLKSHINPTGTVLLQLENTMQMSLKDLL",–,–,–,− (− = <0.5 relative activity over Rd2BB (SEQ ID NO: 10)),+ (+ = 0.5 to 1.5 relative activity over Rd2BB (SEQ ID NO: 10)),+ (+ = 0.5 to 1.5 relative activity over Rd2BB (SEQ ID NO: 10)),+ (+ = 0.5 to 1.5 relative activity over Rd2BB (SEQ ID NO: 10))
"238 (protein, Synthetic Polypeptide sequence of Variant No. 238 of mature Human GLA) LDNGLARTPTMGWLHWERFMCNLDCQEEPDSCISEKLFMEMAELMVSEGWKDAGYEYLCIDDCWMAPQRDSEGRLQADPQRFPHGIRQLANYVHSKGLKLGIYADVGNKTCAGFPGSFGYYDIDAQTFADWGVDLLKFDGCYCDSLENLADGYKHMSLALNRTGRSIVYSCEWPLYMWPFQKPNYTEIRQYCNHWRNFADIDDSWASVKSILDWTSFNQERIVDVAGPGGWNDPDMLVIGNFGLSWNQQVTQMALWAIMAAPLFMSNDLRHISPQAKALLQDKDVIAINQDPLGKQGYQLRQGDNFEVWERPLSGLAWAVAVINRQEIGGPRSYTIAVASLGGGVACNPACFITQLLPVKRKLGLYEWTSRLKSHVNPTGTVLLQLENTMQMSLKDLL",–,–,–,++ (++ = 1.5 to 2.5 relative activity over Rd2BB (SEQ ID NO: 10)),+++ (+++ = >2.5 relative activity over Rd2BB (SEQ ID NO: 10)),+++ (+++ = >2.5 relative activity over Rd2BB (SEQ ID NO: 10)),++ (++ = 1.5 to 2.5 relative activity over Rd2BB (SEQ ID NO: 10))
"239 (protein, Synthetic Polypeptide sequence of Variant No. 239 of mature Human GLA) LDNGLARTPTMGWLHWERFMCNLDCQEEPDSCISEKLFMEMAELMVSEGWKDAGYEYLCIDDCWMAPQRDSEGRLQADPQRFPHGIRQLANYVHSKGLKLGIYADVGNKTCAGFPGSFGYYDIDAQTFADWGVDLLKFDGCYCDSLENLADGYKHMSLALNRTGRSIVYSCEWPLYMWPFQKPNYTEIRQYCNHWRNFADIDDSWASVKSILDWTSFNQEKIVDVAGPGGWNDPDMLVIGNFGLSWDQQVTQMALWAIMAAPLFMSNDLRHISPQAKALLQDKDVIAINQDPLGKQGYQLRQGDNFEVWERPLSGLAWAVAIINRQEIGGPRSYTIAVASLGDGVACNPACFITQLLPVKRKLGLYEWTSRLKSHVNPTGTVLLQLENTMQMSLKDLL",–,–,–,+++ (+++ = >2.5 relative activity over Rd2BB (SEQ ID NO: 10)),+++ (+++ = >2.5 relative activity over Rd2BB (SEQ ID NO: 10)),+++ (+++ = >2.5 relative activity over Rd2BB (SEQ ID NO: 10)),++ (++ = 1.5 to 2.5 relative activity over Rd2BB (SEQ ID NO: 10))
"241 (protein, Synthetic Polypeptide sequence of Variant No. 241 of mature Human GLA) LDNGLARTPTMGWLHWERFMCNLDCQEEPDSCISEKLFMEMAELMVSEGWKDAGYEYLCIDDCWMAPQRDSEGRLQADPQRFPHGIRQLANYVHSKGLKLGIYADVGNKTCAGFPGSFGYYDIDAQTFADWGVDLLKFDGCYCDSLENLADGYKHMSLALNRTGRSIVYSCEWPLYMWPFQKPNYTEIRQYCNHWRNFADIDDSWASIKSILDWTSFNQERIVDVAGPGGWNDPDMLVIGNFGLSWDQQVTQMALWAIMAAPLFMSNDLRHISPQAKALLQDKDVIAINQDPLGKQGYQLRQGDNFEVWERPLSGLAWAVAVINRQEIGGPRSYTIAVASLGDGVACNPACFITQLLPVKRKLGFYEWTSRLKSHVNPTGTVLLQLENTMQMSLKDLL",–,–,–,++ (++ = 1.5 to 2.5 relative activity over Rd2BB (SEQ ID NO: 10)),+++ (+++ = >2.5 relative activity over Rd2BB (SEQ ID NO: 10)),+++ (+++ = >2.5 relative activity over Rd2BB (SEQ ID NO: 10)),++ (++ = 1.5 to 2.5 relative activity over Rd2BB (SEQ ID NO: 10))
